T1: FcγRIIb extracellular domain with C-terminal His tag (human, UniProt P31994 43-217)
T1 construct: extracellular domain; expressed in FreeStyle293 cells; analyte in Biacore; also called FcgRIIb; 2b
T1 sequence (looked up): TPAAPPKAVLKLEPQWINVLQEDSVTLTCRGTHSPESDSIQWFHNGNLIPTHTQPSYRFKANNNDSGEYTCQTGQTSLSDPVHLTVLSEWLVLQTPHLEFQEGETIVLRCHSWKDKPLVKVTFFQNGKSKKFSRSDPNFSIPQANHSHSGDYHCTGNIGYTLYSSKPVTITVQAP


Key:
[1] = target: T2, FcγRIa extracellular domain with C-terminal His tag (human, UniProt P12314 16-292); test: SPR (Biacore), captured antibody, FcγR as analyte; relative binding
T2 construct: extracellular domain; expressed in FreeStyle293 cells; analyte in Biacore; also called FcgRI; 1a

[2] = target: T1, FcγRIIb extracellular domain with …; test: as above

T2 sequence (P12314 16-292): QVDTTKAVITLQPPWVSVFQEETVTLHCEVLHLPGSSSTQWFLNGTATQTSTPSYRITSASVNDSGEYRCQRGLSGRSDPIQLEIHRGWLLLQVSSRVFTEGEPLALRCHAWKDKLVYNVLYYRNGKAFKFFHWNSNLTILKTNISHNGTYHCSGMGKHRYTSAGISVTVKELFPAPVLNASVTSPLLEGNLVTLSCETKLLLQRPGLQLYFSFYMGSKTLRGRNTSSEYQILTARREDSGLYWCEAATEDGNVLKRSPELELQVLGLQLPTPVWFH

Binder	He/Con_1a [1]	He/Con_2b [2]
GpH7-A5/GpH7-B3 variant Y296_11K/GpL16-k0 (antibody, human IgG1, kappa, He Ab; IgG1, mutation in one H chain) heavy 1: not shown heavy 2: not shown light: DIVMTQSPLSLPVTPGEPASISCQASESLVHSNRNTYLHWYLQKPGQSPQLLIYKVSNRFSGVPDRFSGSGSGTDFTLKISRVEAEDVGVYYCSQNTHVPPTFGQGTKVEIERTVAAPSVFIFPPSDEQLKSGTASVVCLLNNFYPREAKVQWKVDNALQSGNSQESVTEQDSKDSTYSLSSTLTLSKADYEKHKVYACEVTHQGLSSPVTKSFNRGEC	105 % of HeCon Ab (GpH7-A5/GpH7-B3/GpL16-k0 = 100)	72.8 % of HeCon Ab (GpH7-A5/GpH7-B3/GpL16-k0 = 100)
GpH7-A5/GpH7-B3 variant Y300_07I/GpL16-k0 (antibody, human IgG1, kappa, He Ab; IgG1, mutation in one H chain) heavy 1: not shown heavy 2: not shown light: DIVMTQSPLSLPVTPGEPASISCQASESLVHSNRNTYLHWYLQKPGQSPQLLIYKVSNRFSGVPDRFSGSGSGTDFTLKISRVEAEDVGVYYCSQNTHVPPTFGQGTKVEIERTVAAPSVFIFPPSDEQLKSGTASVVCLLNNFYPREAKVQWKVDNALQSGNSQESVTEQDSKDSTYSLSSTLTLSKADYEKHKVYACEVTHQGLSSPVTKSFNRGEC	108 % of HeCon Ab (GpH7-A5/GpH7-B3/GpL16-k0 = 100)	74.5 % of HeCon Ab (GpH7-A5/GpH7-B3/GpL16-k0 = 100)
GpH7-A5/GpH7-B3 variant Y296_16H/GpL16-k0 (antibody, human IgG1, kappa, He Ab; IgG1, mutation in one H chain) heavy 1: not shown heavy 2: not shown light: DIVMTQSPLSLPVTPGEPASISCQASESLVHSNRNTYLHWYLQKPGQSPQLLIYKVSNRFSGVPDRFSGSGSGTDFTLKISRVEAEDVGVYYCSQNTHVPPTFGQGTKVEIERTVAAPSVFIFPPSDEQLKSGTASVVCLLNNFYPREAKVQWKVDNALQSGNSQESVTEQDSKDSTYSLSSTLTLSKADYEKHKVYACEVTHQGLSSPVTKSFNRGEC	106 % of HeCon Ab (GpH7-A5/GpH7-B3/GpL16-k0 = 100)	92.2 % of HeCon Ab (GpH7-A5/GpH7-B3/GpL16-k0 = 100)
GpH7-A5/GpH7-B3 variant Y296_18N/GpL16-k0 (antibody, human IgG1, kappa, He Ab; IgG1, mutation in one H chain) heavy 1: not shown heavy 2: not shown light: DIVMTQSPLSLPVTPGEPASISCQASESLVHSNRNTYLHWYLQKPGQSPQLLIYKVSNRFSGVPDRFSGSGSGTDFTLKISRVEAEDVGVYYCSQNTHVPPTFGQGTKVEIERTVAAPSVFIFPPSDEQLKSGTASVVCLLNNFYPREAKVQWKVDNALQSGNSQESVTEQDSKDSTYSLSSTLTLSKADYEKHKVYACEVTHQGLSSPVTKSFNRGEC	106 % of HeCon Ab (GpH7-A5/GpH7-B3/GpL16-k0 = 100)	91.5 % of HeCon Ab (GpH7-A5/GpH7-B3/GpL16-k0 = 100)
GpH7-A5/GpH7-B3 variant Y300_09D/GpL16-k0 (antibody, human IgG1, kappa, He Ab; IgG1, mutation in one H chain) heavy 1: not shown heavy 2: not shown light: DIVMTQSPLSLPVTPGEPASISCQASESLVHSNRNTYLHWYLQKPGQSPQLLIYKVSNRFSGVPDRFSGSGSGTDFTLKISRVEAEDVGVYYCSQNTHVPPTFGQGTKVEIERTVAAPSVFIFPPSDEQLKSGTASVVCLLNNFYPREAKVQWKVDNALQSGNSQESVTEQDSKDSTYSLSSTLTLSKADYEKHKVYACEVTHQGLSSPVTKSFNRGEC	112 % of HeCon Ab (GpH7-A5/GpH7-B3/GpL16-k0 = 100)	93.2 % of HeCon Ab (GpH7-A5/GpH7-B3/GpL16-k0 = 100)

Second part, the binder after the results:

He/Con_1a [1]	He/Con_2b [2]	Binder
105 % of HeCon Ab (GpH7-A5/GpH7-B3/GpL16-k0 = 100)	88.2 % of HeCon Ab (GpH7-A5/GpH7-B3/GpL16-k0 = 100)	GpH7-A5/GpH7-B3 variant Y296_14T/GpL16-k0 (antibody, human IgG1, kappa, He Ab; IgG1, mutation in one H chain) heavy 1: not shown heavy 2: not shown light: DIVMTQSPLSLPVTPGEPASISCQASESLVHSNRNTYLHWYLQKPGQSPQLLIYKVSNRFSGVPDRFSGSGSGTDFTLKISRVEAEDVGVYYCSQNTHVPPTFGQGTKVEIERTVAAPSVFIFPPSDEQLKSGTASVVCLLNNFYPREAKVQWKVDNALQSGNSQESVTEQDSKDSTYSLSSTLTLSKADYEKHKVYACEVTHQGLSSPVTKSFNRGEC
107 % of HeCon Ab (GpH7-A5/GpH7-B3/GpL16-k0 = 100)	51.6 % of HeCon Ab (GpH7-A5/GpH7-B3/GpL16-k0 = 100)	GpH7-A5/GpH7-B3 variant Y300_11K/GpL16-k0 (antibody, human IgG1, kappa, He Ab; IgG1, mutation in one H chain) heavy 1: not shown heavy 2: not shown light: DIVMTQSPLSLPVTPGEPASISCQASESLVHSNRNTYLHWYLQKPGQSPQLLIYKVSNRFSGVPDRFSGSGSGTDFTLKISRVEAEDVGVYYCSQNTHVPPTFGQGTKVEIERTVAAPSVFIFPPSDEQLKSGTASVVCLLNNFYPREAKVQWKVDNALQSGNSQESVTEQDSKDSTYSLSSTLTLSKADYEKHKVYACEVTHQGLSSPVTKSFNRGEC
111 % of HeCon Ab (GpH7-A5/GpH7-B3/GpL16-k0 = 100)	53.9 % of HeCon Ab (GpH7-A5/GpH7-B3/GpL16-k0 = 100)	GpH7-A5/GpH7-B3 variant Y300_13S/GpL16-k0 (antibody, human IgG1, kappa, He Ab; IgG1, mutation in one H chain) heavy 1: not shown heavy 2: not shown light: DIVMTQSPLSLPVTPGEPASISCQASESLVHSNRNTYLHWYLQKPGQSPQLLIYKVSNRFSGVPDRFSGSGSGTDFTLKISRVEAEDVGVYYCSQNTHVPPTFGQGTKVEIERTVAAPSVFIFPPSDEQLKSGTASVVCLLNNFYPREAKVQWKVDNALQSGNSQESVTEQDSKDSTYSLSSTLTLSKADYEKHKVYACEVTHQGLSSPVTKSFNRGEC
106 % of HeCon Ab (GpH7-A5/GpH7-B3/GpL16-k0 = 100)	79.5 % of HeCon Ab (GpH7-A5/GpH7-B3/GpL16-k0 = 100)	GpH7-A5/GpH7-B3 variant Y296_12R/GpL16-k0 (antibody, human IgG1, kappa, He Ab; IgG1, mutation in one H chain) heavy 1: not shown heavy 2: not shown light: DIVMTQSPLSLPVTPGEPASISCQASESLVHSNRNTYLHWYLQKPGQSPQLLIYKVSNRFSGVPDRFSGSGSGTDFTLKISRVEAEDVGVYYCSQNTHVPPTFGQGTKVEIERTVAAPSVFIFPPSDEQLKSGTASVVCLLNNFYPREAKVQWKVDNALQSGNSQESVTEQDSKDSTYSLSSTLTLSKADYEKHKVYACEVTHQGLSSPVTKSFNRGEC
117 % of HeCon Ab (GpH7-A5/GpH7-B3/GpL16-k0 = 100)	73.9 % of HeCon Ab (GpH7-A5/GpH7-B3/GpL16-k0 = 100)	GpH7-A5/GpH7-B3 variant Y300_03V/GpL16-k0 (antibody, human IgG1, kappa, He Ab; IgG1, mutation in one H chain) heavy 1: not shown heavy 2: not shown light: DIVMTQSPLSLPVTPGEPASISCQASESLVHSNRNTYLHWYLQKPGQSPQLLIYKVSNRFSGVPDRFSGSGSGTDFTLKISRVEAEDVGVYYCSQNTHVPPTFGQGTKVEIERTVAAPSVFIFPPSDEQLKSGTASVVCLLNNFYPREAKVQWKVDNALQSGNSQESVTEQDSKDSTYSLSSTLTLSKADYEKHKVYACEVTHQGLSSPVTKSFNRGEC

Reference: patent US20150344570A1 (published 2015)
